Test results as given in patent US9057727B2, “Screening methods using G-protein coupled receptors and related compositions” (The General Hospital Corporation, priority 2007, dated 2015).
Ends that are not written are not given here.

What was measured:
[1] = biological target: T1, human PTHR, G protein-coupled conformation (RG) (Homo sapiens, UniProt Q03431); experiment: Competition binding to RG conformation of hPTHR (COS-7 membranes, GαsND, 125I-[Aib1,3,M]PTH(1-15) tracer); settings: parent PTHrP(1-28)NH
T1 construct: expressed in transfected cells; host or cells: COS-7, transient (Fugene-6); membranes
T1 sequence (Q03431 27-593): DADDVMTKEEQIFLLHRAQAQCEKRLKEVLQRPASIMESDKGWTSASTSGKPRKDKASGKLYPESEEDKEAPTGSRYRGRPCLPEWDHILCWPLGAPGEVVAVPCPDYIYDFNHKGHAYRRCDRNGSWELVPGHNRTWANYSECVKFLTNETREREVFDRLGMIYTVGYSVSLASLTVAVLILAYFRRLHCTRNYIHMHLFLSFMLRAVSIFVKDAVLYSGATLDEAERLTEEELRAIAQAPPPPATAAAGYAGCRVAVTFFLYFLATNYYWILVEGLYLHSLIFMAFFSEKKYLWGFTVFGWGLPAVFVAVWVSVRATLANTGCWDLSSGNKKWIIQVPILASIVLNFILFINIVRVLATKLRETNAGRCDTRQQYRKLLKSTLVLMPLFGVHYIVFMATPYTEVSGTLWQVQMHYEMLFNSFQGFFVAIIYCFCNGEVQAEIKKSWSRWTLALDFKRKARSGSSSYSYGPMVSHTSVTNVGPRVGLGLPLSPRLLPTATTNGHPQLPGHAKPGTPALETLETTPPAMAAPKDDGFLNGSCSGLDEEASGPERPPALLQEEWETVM

[2] = system: LLCPK1-B64 cells or SaOS-2 cells; experiment: cAMP screen of substituted PTHrP(1-28) analogs (% parent); format: cell-based; settings: parent PTHrP(1-28)NH
Experimental: Alanine substitution at position 18, 22, 25 and 26 increased activity in at least one cell type. These positions were further substituted to various types of amino acids, and cAMP activity was analyzed in LLCPK1-B64 cells (FIG. 27C) or SaOS-2 cells (FIG. 27D). Cells were treated with analogs at 3×10^−9M in the presence of IBMX for 30 minutes at room temperature. Responses for each analog were normalized to the response for the parent (native) PTHrP(1-28) peptide. Alanine substitutions were A^15 to A^17 (SEQ ID NO:152-154), A^18 (SEQ ID NO:34), A^19 to A^21 (SEQ ID NO:155-157), A^22 (SEQ ID NO:39), A^23 to A^25 (SEQ ID NO:158-160), A^26 (SEQ ID NO:46), and A^27 to A^28 (SEQ ID NO:161-162). Substitutions at position 18 were A^18 (SEQ ID NO: 34), G^18 (SEQ ID NO:163), S^18 (SEQ ID NO:35), M^18 (SEQ ID NO:36), L^18 (SEQ ID NO:164), F^18 (SEQ ID NO:37), N^18 (SEQ ID NO:165), E^18 (SEQ ID NO:38), and K^18 (SEQ ID NO:166). Substitutions at position 22 were A^22 (SEQ ID NO:39), G^22 (SEQ ID NO:167), and S^22 to K^22 (SEQ ID NO:40-45). Substitutions at position 26 were A^26 (SEQ ID NO:46), G^26 (SEQ ID NO:168), S^26 (SEQ ID NO:47), L^26 (SEQ ID NO:169), N^26 (SEQ ID NO:48), W^26 to E^26 (SEQ ID NO:170-171), and K^26 to R^26 (SEQ ID NO:49-50). Substitutions at position 25 were G^25 to S^25 (SEQ ID NO:172-173), L^25 (SEQ ID NO:51), N^25 (SEQ ID NO:174), W^25 (SEQ ID NO:52), E^25 (SEQ ID NO:175), and K^25 to R^25 (SEQ ID NO:53-54). […]

[3] = biological target: T2, human PTHR, G protein-uncoupled conformation (R^0) (Homo sapiens, UniProt Q03431); experiment: Competition binding to R0 conformation of hPTHR (COS-7 membranes, GTPγS, 125I-PTH(1-34) tracer); settings: parent PTHrP(1-28)NH
T2 construct: expressed in transfected cells; host or cells: COS-7, transient (Fugene-6)
T2 sequence (Q03431 27-593): T1 sequence (Q03431 27-593)
Experimental: Membranes were prepared from COS-7 cells transfected with the hPTHR alone. GTPγS ([…]) was added to the binding reactions so as to functionally uncouple receptor-heterotrimeric G protein complexes, thus enriching for the R^0 (and R) conformations, relative to RG.
Reactions contained a total membrane protein concentration of 20 to 100 μg/mL, and a total radioactivity concentration of approximately 150,000 cpm/ml. Unlabeled peptide ligands and/or GTPγS (Sigma-Aldrich Inc. St. Louis, Mo.) were added to the reactions as indicated.
Membranes, tracer radioligand, and various concentrations of unlabeled ligands and/or GTPγS were incubated in the wells for 90 minutes, following which, the reaction plates were processed by rapid vacuum filtration to separate bound from free radioligand, as described above. […] For both radioligands, the non-specific binding was determined in reactions containing a saturating concentration of the unlabeled analog of the radioligand. The specifically bound radioactivity was calculated as a percent of the radioactivity specifically bound in the absence of a competing ligand or GTPγS.
To assess the capacities of various unlabeled peptide ligands to bind to the G protein-uncoupled and G protein-coupled PTHR conformations (R^0 and RG, respectively), membranes were prepared from transiently transfected COS-7 cells and the following assay conditions.

MC3T3-E1 cells = experiment: cAMP in MC3T3-E1 cells, dose-response; format: cell-based; settings: Table 3; read-out: dose-response cAMP in MC3T3-E1 (EC50)
Experimental: In the 1-30 scaffold, Gly, Ser, Leu, Asn, Gln, Trp, Glu, and Lys were substituted at position 29; Gly, Ser, Leu, Asn, Asp, Trp, and Lys were substituted at position 30; and Ser, Leu, Asn, Val, Trp, Glu, and Lys were substituted at position 31. […] These peptides were tested for cAMP activity in MC3T3-E1 cells.

Substance | screen human PIR RG (% parent) [1] | screen human PIR R0 (% parent) [3] | EC50 (MC3T3-E1 cells) | screen cAMP (% parent) [2]
A18,26,N22-PTHrP(1-28) (AVSEHQLLHDKGKSIQDARRRNFLHALI-NH2) [A18, 26, N22-PTHrP(1-28)NH] | 161 % parent | 136 % parent | – | 265 % parent
A18,26,S22-PTHrP(1-28) (AVSEHQLLHDKGKSIQDARRRSFLHALI-NH2) [A18, 26, S22-PTHrP(1-28)NH] | 148 % parent | 133 % parent | – | 229 % parent
A18,26,W22-PTHrP(1-28) (AVSEHQLLHDKGKSIQDARRRWFLHALI-NH2) [A18, 26, W22-PTHrP(1-28)NH] | 120 % parent | 126 % parent | – | 188 % parent
A18,L22,K26-PTHrP(1-28) (AVSEHQLLHDKGKSIQDARRRLFLHKLI-NH2) [A18, L22, K26-PTHrP(1-28)NH] | 177 % parent | 160 % parent | – | 350 % parent
A18,N22,K26-PTHrP(1-28) (AVSEHQLLHDKGKSIQDARRRNFLHKLI-NH2) [A18, N22, K26-PTHrP(1-28)NH] | 172 % parent | 139 % parent | – | 326 % parent
A18,W22,K26-PTHrP(1-28) (AVSEHQLLHDKGKSIQDARRRWFLHKLI-NH2) [A18, W22, K26-PTHrP(1-28)NH] | 115 % parent | 136 % parent | – | 267 % parent
AVSEHQLLHDKGKSIQDARRRAFLHKLIAE [A18, 22, K26-PTHrP(1-30)NH, A18,22,K26-PTHrP(1-30)] | – | – | 0.058 nM | –
AVSEHQLLHDKGKSIQDARRRAFLHKLIAEI [A18, 22, K26-PTHrP(1-31)NH, A18,22,K26-PTHrP(1-31)] | – | – | 0.06 nM | –
AVSEHQLLHDKGKSIQDARRRAFLLKLIAEI [A18, 22, L25, K26-PTHrP(1-31)NH, A18,22,L25,K26-PTHrP(1-31)] | – | – | 0.2 nM | –

Second part, led by results:

screen human PIR RG (% parent) [1] | screen human PIR R0 (% parent) [3] | EC50 (MC3T3-E1 cells) | Substance | screen cAMP (% parent) [2]
– | – | 0.082 nM | AVSEHQLLHDKGKSIQDERRRAFLHHKIAE [E18, A22, K27-PTHrP(1-30)NH, E18,A22,K27-PTHrP(1-30)] | –
– | – | 0.112 nM | AVSEHQLLHDKGKSIQDERRRAFLLKLIAEI [E18, A22, L25, K26-PTHrP(1-31)NH, E18,A22,L25,K26-PTHrP(1-31)] | –
208 % parent | 119.8 % parent | – | E18,K22,26-PTHrP(1-28) (AVSEHQLLHDKGKSIQDERRRKFLHKLI-NH2) [E18, K22, 26-PTHrP(1-28)NH] | 374 % parent
192 % parent | 106.1 % parent | – | E18,K22,A26-PTHrP(1-28) (AVSEHQLLHDKGKSIQDERRRKFLHALI-NH2) [E18, K22, A26-PTHrP(1-28)NH] | 315 % parent
125 % parent | 52.5 % parent | – | E18,L22,A26-PTHrP(1-28) (AVSEHQLLHDKGKSIQDERRRLFLHALI-NH2) [E18, L22, A26-PTHrP(1-28)NH] | 139 % parent
152 % parent | 64.4 % parent | – | E18,L22,K26-PTHrP(1-28) (AVSEHQLLHDKGKSIQDERRRLFLHKLI-NH2) [E18, L22, K26-PTHrP(1-28)NH] | 264 % parent
140 % parent | 53.7 % parent | – | E18,N22,A26-PTHrP(1-28) (AVSEHQLLHDKGKSIQDERRRNFLHALI-NH2) [E18, N22, A26-PTHrP(1-28)NH] | 171 % parent
147 % parent | 84.4 % parent | – | E18,N22,K26-PTHrP(1-28) (AVSEHQLLHDKGKSIQDERRRNFLHKLI-NH2) [E18, N22, K26-PTHrP(1-28)NH] | 236 % parent
132 % parent | 31.9 % parent | – | E18,S22,A26-PTHrP(1-28) (AVSEHQLLHDKGKSIQDERRRSFLHALI-NH2) [E18, S22, A26-PTHrP(1-28)NH] | 119 % parent
116 % parent | 18.8 % parent | – | E18,W22,A26-PTHrP(1-28) (AVSEHQLLHDKGKSIQDERRRWFLHALI-NH2) [E18, W22, A26-PTHrP(1-28)NH] | 75 % parent
149 % parent | 46.6 % parent | – | E18,W22,K26-PTHrP(1-28) (AVSEHQLLHDKGKSIQDERRRWFLHKLI-NH2) [E18, W22, K26-PTHrP(1-28)NH] | 165 % parent
